Values of other authors, collected in PMC3138520.

Target: NRG-1β (Homo sapiens) (UniProt Q02297)
Chain of UniProt Q02297 (Q02297 20-241): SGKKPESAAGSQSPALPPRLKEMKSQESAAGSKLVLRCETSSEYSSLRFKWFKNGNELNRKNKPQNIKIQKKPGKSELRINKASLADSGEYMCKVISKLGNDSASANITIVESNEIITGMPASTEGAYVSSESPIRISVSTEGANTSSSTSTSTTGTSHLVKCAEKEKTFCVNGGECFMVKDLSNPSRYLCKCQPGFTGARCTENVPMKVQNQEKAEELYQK

Kd: 10 nM
Substance: HER3 (from UniProt P21860)
